# Reference: US20230121197A1, “ANTIBODIES SPECIFICALLY BINDING THE CARBOXYMETHYLATED CATALYTIC SUBUNIT OF PROTEIN PHOSPHATASE 2A” (Medizinische Universität Wien, priority 2020, published 2023)
# T1: PP2Ac C-terminal peptide meL309, ac-HVTRRTPDYFL-CH3 (α-carboxymethylated) (human, SMILES …)
# T1 construct: also called Y307-meL309; mePP2Ac
# T1 peptide: Ac-HVTRRTPDYFL-OMe
# T2: C-terminal PP2Ac peptide Y307F, CGEPHVTRRTPDFFL (15-mer)
# T2 construct: Non-carboxymethylated; Phe in place of Tyr307; Crosslinked to BSA in the Western blot; free or linked to BSA in the ELISA
# T2 peptide: CGEPHVTRRTPDFFL
# T3: mouse HA PP4c, carboxymethylated (immunoprecipitated from NIH3T3 cells) (mouse) (UniProt P97470)
# T3 sequence (C-terminal leucine α-carboxyl methyl ester (cellular methylation), looked up): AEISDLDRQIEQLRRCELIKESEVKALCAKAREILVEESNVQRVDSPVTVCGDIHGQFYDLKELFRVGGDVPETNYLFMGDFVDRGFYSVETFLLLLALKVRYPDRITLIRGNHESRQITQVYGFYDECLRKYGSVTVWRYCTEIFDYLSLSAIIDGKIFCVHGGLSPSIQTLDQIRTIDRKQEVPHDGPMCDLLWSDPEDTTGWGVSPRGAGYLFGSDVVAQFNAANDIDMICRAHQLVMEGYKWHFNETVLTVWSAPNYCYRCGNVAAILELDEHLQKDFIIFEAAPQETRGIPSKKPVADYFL
# B1: 7C10-C5 monoclonal antibody (antibody, V domains shown)
# VH: DVQLQESGPGLVKPSQSLSLTCSVTGYSITSGYYWNWIRQFPGNKLEWMGYISYDGSNNYNPSLKNRISITRDTSKNQFFLKLNSVTTEDTATYYCAGRFAYWGQGTLVTVSA
# VL: DVLMTQTPLSLPVSLGDQASISCRSSQSIVHSNGNTYLEWYLQKPGQSPKLLIYKVSNRFSGVPDRFSGSGSGTDFTLKINRVEAEDLGVYYCFQGSHVPWTFGGGTKLEIK
# notes: Used as hybridoma culture supernatant (ELISA, Western blot, IHC) or at 50 µg/mL (SPR); also called 7C10 X63; clone 7C10-C5
# Experiments:
# [1] = target: T1, PP2Ac C-terminal peptide meL309, …; assay: SPR (Biacore T200), antibody captured by anti-mouse IgG on CM5 chip, peptide 5-160 nM as analyte, steady state analysis, 25 °C
# Procedure: The differential affinity of anti-carboxymethylated PP2Ac antibodies, 7C10-C5 and 2A10, to carboxymethylated PP2A catalytic subunit versus noncarboxymethylated PP2A catalytic subunit was determined by surface plasmon resonance (SPR) on a Biacore T200 (GE Healthcare) at the Core Facility Biomolecular & Cellular Analysis (University of Natural Resources and Life Sciences Vienna BOKU). The affinity of 7C10-C5 for carboxymethylated and noncarboxymethylated catalytic subunit of PP4 (PP4c), a PP2A-related phosphatase, was also determined.
# Series S Sensor Chip CM5 (GE Healthcare, 10296958) Flow cells (e.g. Flow cells 3 and 4 for the data shown in Table 5 and FIG. 32) were coated with 30 μg/mL anti-mouse IgG antibody (in immobilization buffer) using the mouse antibody capture kit (GE Healthcare, BR-1008-38, Lot 10294578) via amine coupling according to the manufacturer's protocol (i.e. https://www.cytivalifesciences. com/en/us/shop/protein-analysis/spr-lab el-free-analysis/capture-reagents/mouse-antibody-capture-kit-p-05986). The immobilisation levels obtained were 11620.2 RU (Flow cell 1), 10836.5 RU (Flow cell 2), 11605.9 RU (Flow cell 3) and 11333.9 RU (Flow cell 4), and thus were within the specifications. […]
# SPR experiments were performed with the BiacoreT200 instrument (Cytiva). […] The sensorgrams obtained were analyzed with BiacoreT200 Evaluation Software (version 3.1).
# [2] = target: T2, C-terminal PP2Ac peptide Y307F, …; assay: Western blot of 100 ng BSA crosslinked with peptide
# Procedure: 100 ng of BSA crosslinked with peptides (L309: […] (SEQ ID NO:49), Y307F: […] (SEQ ID NO.50), pY307: […]pYFL (SEQ ID NO:51) or meL309: […]-CH₃) (SEQ ID NO:49) was separated by 10% SDS-PAGE and transferred to nitrocellulose membrane (0.2 μm, GE Healthcare). […] The membranes were blocked in 3% non-fatty dry milk (NFDM) in TBS-Tween for 1 h at RT and incubated with single clone hybridoma cell culture supernatant, clone 7C10-C5 diluted 1:100 in 0.5% NFDM in TBS-T (7C10 X63), recombinant single chain variable fragment of antibody 7C10-C5, undiluted (7C10 scFvs), recombinant bivalent single chain variable fragment 7C10-C5, undiluted (7C10 bi-scFvs) or single clone hybridoma cell culture supernatant, clone 1D7 (binding to non-carboxymethylated PP2Ac) 1:100 in 0.5% NFDM in TBS-T o/n at 4° C. After washing 3×5 min in TBS-T, blots incubated with recombinant antibodies were incubated with mouse anti-HA monoclonal antibody 16B12 (recognizing the hemagglutinin (HA) tag on the recombinant antibody), 1:10000 in 0.5% NFDM in TBS-T 2 h at room temperature. After washing 3×5 min in TBS-T, incubation with anti-mouse-HRP coupled secondary antibody for 1 h at RT and 3×10 min washes in TBS-T was performed. ECL was performed with GE Healthcare ECL reagents (RPN2106) mixed 1:3 with Clarity™ Western ECL Substrate, 500 ml #1705061 (Biorad). Signals were detected by exposure of X-ray films. […]
# [3] = target: T3, mouse HA PP4c, carboxymethylated (immunoprecipitated from NIH3T3 cells) (mouse); assay: Western blot quantification, signal normalized to HA level, HA-PP2A set to 1, N=3
# [4] = target: T4, C(βA)TPDYFL-CH3 peptide (carboxymethylated PP2Ac C-terminus) (Homo sapiens, UniProt P67775); assay: ELISA screening of hybridoma supernatants with C(βA)TPDYFL peptides; type: binding; settings: undiluted supernatants, peptides at 3 μg/ml
# T4 construct: purchased PiChem GmbH (Graz, Austria)
# Procedure: In parallel to the immunoblotting screening, hybridoma supernatants were tested for the presence of TPDYFL-CH3 (SEQ ID NO:1) specific IgG antibodies by ELISA. Specifically, flat-bottom Nunc-Immuno Medisorp 96-well ELISA plates (Thermo; 467320) were coated over night at 4° C. with 50 μl of either a peptide of the sequence C(βA)TPDYFL (SEQ ID NO:48) at a concentration of 3 μg/ml in 10 mM sodium phosphate buffer pH 7.0 or with a peptide of the sequence C(βA)TPDYFL-CH3 (SEQ ID NO:48) at a concentration of 3 μg/ml in 10 mM sodium phosphate buffer pH 7.0. The wells were washed once with PBS, blocked with 180 μl of 2% bovine serum albumin (Sigma, A9647) in PBS for 1 hour at RT and washed again once with PBS. […] Bound antibodies were detected colorimetrically by addition of 50 μl of 33 μg/ml […] (TMB) (Sigma, T2885) in 0.1 M sodium acetate pH 6.0 and 0.01% H2O2 (Sigma, H1009). The colorimetric reaction was stopped after 28 min by addition of 50 μl 0.5 M H2SO4, and absorbance was measured at 450 nm with a Perkin Elmer Wallac Victor 2 1420 Multilabel Counter.
molecule,measurement,setting,value
B1,Kd,[1],11 nM
same,binding result,[2],no binding (tested: supernatant 1:100)
same,7C10/HA blot signal relative to HA-PP2A = 1,[3],0.01 7C10/HA
same,detection of carboxymethylated versus non-carboxymethylated peptide,[4],detected the carboxymethylated peptide
